Literature values as cited in patent US7930157B2, “Computational method and apparatus for predicting polypeptide aggregation or solubility” (Cambridge University Technical Services Ltd., priority 2003, dated 2011).
Where two headings read alike, the source gives them in different places. One block for each compound: values may come before it. Where no end group is shown, it is not given here.

Key:
[1] = compared to the human calcitonin sequence
[2] = for hydrophobicity: neutral pH, based on partition coefficients from water to octanol
[3] = for charge: neutral pH
[4] = normalised from 0 (high β-sheet propensity) to 1 (low); glycine from theoretical calculations
[5] = experimental aggregation rate of mutant relative to wild type; growth phase only
[6] = τ obtained using T1 (nucleation time)
[7] = τ obtained using T2 (half time of aggregation)
[8] = pH lower than 6.0, histidine positively charged

Compound: SEQ ID NO 14: calcitonin sequence reported in Zurdo & Dobson (WO 02/083734), 6 modified positions when compared to the human sequence (CGNLSTCMLGKLTQELRKLHTFPQTAIGVGAP; ends and bridges not checked; cysteine pairing not given here)
Observed (τmut/τwt) [1, 6]: 300
observed ln (νmut/νwt) [1, 6]: −5.71
Observed (τmut/τwt) [1, 7]: 100
observed ln (νmut/νwt) [1, 7]: −4.61

hydrophobicity (value in brackets) [2, 8]: 0.686 kcal/mol
charge (value in brackets) [3, 8]: +1
Compound: N[C@@H](Cc1c[nH]cn1)C(=O)O [His (H), His]

hydrophobicity [2]: 0.662 kcal/mol
β-sheet propensity [4]: 0.34
charge [3]: +1
Compound: NCCCC[C@H](N)C(=O)O [Lys (K), Lys]

Compound: G24A: single-point mutation G24A of amylin (islet amyloid polypeptide), ref. 11 (KCNTATCATQRLANFLVHSSNNFAAILSSTNVGSNTY; ends and bridges not checked; cysteine pairing not given here; UniProt P10997 34-70, looked up, variant G24A)
observed ln (νmut/νwt) [5]: −0.03

hydrophobicity [2]: -0.509 kcal/mol
β-sheet propensity [4]: 0.24
charge [3]: 0
Compound: N[C@@H](Cc1c[nH]c2ccccc12)C(=O)O [Trp (W), Trp]

Compound: N22A: single-point mutation N22A of amylin (islet amyloid polypeptide), ref. 11 (KCNTATCATQRLANFLVHSSNAFGAILSSTNVGSNTY; ends and bridges not checked; cysteine pairing not given here; UniProt P10997 34-70, looked up, variant N22A)
observed ln (νmut/νwt) [5]: 0.69

Compound: I26A: single-point mutation I26A of amylin (islet amyloid polypeptide), ref. 11 (KCNTATCATQRLANFLVHSSNNFGAALSSTNVGSNTY; ends and bridges not checked; cysteine pairing not given here; UniProt P10997 34-70, looked up, variant I26A)
observed ln (νmut/νwt) [5]: −2.39

Compound: F23A: single-point mutation F23A of amylin (islet amyloid polypeptide), ref. 11 (KCNTATCATQRLANFLVHSSNNAGAILSSTNVGSNTY; ends and bridges not checked; cysteine pairing not given here; UniProt P10997 34-70, looked up, variant F23A)
observed ln (νmut/νwt) [5]: −2.65

hydrophobicity [2]: 0.696 kcal/mol
Compound: N[C@@H](CCC(=O)O)C(=O)O [Glu (E), Glu]

Compound: S20G: single-point mutation S20G of amylin, ref. 12 (KCNTATCATQRLANFLVHSGNNFGAILSSTNVGSNTY; ends and bridges not checked; cysteine pairing not given here; UniProt P10997 34-70, looked up, variant S20G)
observed ln (νmut/νwt) [5]: 1.01

Compound: L27A: single-point mutation L27A of amylin (islet amyloid polypeptide), ref. 11 (KCNTATCATQRLANFLVHSSNNFGAIASSTNVGSNTY; ends and bridges not checked; cysteine pairing not given here; UniProt P10997 34-70, looked up, variant L27A)
observed ln (νmut/νwt) [5]: −0.93
